Patent publication US10435681B2, “Compounds and methods for stabilizing thrombin activity” (Omrix Biopharmaceuticals Ltd., priority 2013, dated 2019)
Entries after “also recorded” stand apart in the source; their conditions may differ. Counter-ions that a name gives are not always drawn. Bridges are numbered along the chain shown (N, C = ends). Where no end group is shown, it is not given here.

Key:
[1] = molecular target: T1, thrombin (Homo sapiens, UniProt P00734); assay: Thrombin stability testing: remaining clotting activity of 1000 IU/ml liquid thrombin after storage at 37° C.; format: biochemical; settings: for stabilization of thrombin activity (in words): 0.5 mM peptide, 1000 IU/ml thrombin, 37° C., 0, 3 and 7 days; for maintaining thrombin activity compared with 0.5 mM gamma loop peptide (in words): 3% (w/v) arginine
T1 construct: yields the active alpha thrombin molecule which is a 295 amino acid polypeptide (human) composed of a heavy and light chain
Procedure: Aqueous liquid thrombin, in its purified and concentrated form 1000 international units IU/ml may undergo autolysis at room temperature causing a significant loss of activity e.g. towards a heterologous substrate. E.g. thrombin activity towards a heterologous substrate is reduced when a liquid thrombin formulation is incubated at room temperature for prolonged periods of time (e.g. 72 to 144 hours), inter alia, due to autolytic degradation. The decrease of thrombin activity towards a heterologous substrate in aqueous liquid solution can be assessed by measuring thrombin activity after prolonged periods of time and under permissive temperature (e.g. 37° C.). In the following experiments, the effect of a peptide on the stability of thrombin was studied under different conditions.
Aqueous liquid purified and concentrated thrombin (1000 IU/ml; equivalent to about 10 μM) was aliquoted and placed in a 37° C. incubator for 3 days (72 hours), 7 days (168 hours) and 14 days (336 hours). Prior to incubation, thrombin samples were spiked with indicated amounts of different tested peptides or with a control thrombin inhibitor: benzamidine or arginine *HCl (“arginine”). Specific peptides, their concentrations, and thrombin inhibitors used are indicated in each Example. Following the incubation period, the samples were frozen at −80° C. until testing the thrombin activity. Just before thrombin activity assay testing, all the samples were thawed and 100-fold diluted into a dilution buffer (0.4% tri-sodium citrate di-hydrate, 0.9% sodium chloride and 1% BSA, pH=7.5) to bring the thrombin concentration in the sample to that within the specifications of the assay (4-10 IU/ml) and to dilute the tested peptides in the sample to a negligible concentration.
(§1) Thrombin activity was assessed by clotting time measurements using STart4 Coagulation Instrument (DIAGNOSTICA STAGO™, Asnieres sur Seine, France). The assay is a modification of the European Pharmacopoeia Assay procedure, 1997, 0903, p. 858. Briefly, a calibration curve was prepared by mixing thrombin standard with a fibrinogen solution of 0.1% fibrinogen content (Enzyme Research Laboratories, Ind., USA). Thrombin concentration in the different tested samples was then calculated from the calibration curve by their clotting time (the concentration was extrapolated from the calibration curve).
For stability testing of 1000IU/ml thrombin following storage with or without peptides, testing was carried out as described above. Dilutions (1:100) were carried out before measuring the activity.
All of these peptides (“mutant gamma loop peptides” identified in Example 3, random peptides, thrombin derived peptides, and “gamma loop binding peptides” mentioned above) were tested for their ability to stabilize thrombin activity at a concentration of 0.5 mM as described in Example 2.

[2] = molecular target: T2, gamma loop of thrombin (Homo sapiens, UniProt P00734); assay: Peptide microarray binding screen with fluorescent gamma loop peptide; settings: scale 0-65535
T2 construct: Fluorescein-labeled cyclic gamma-loop derived peptide; made in house; host or cells: chemical synthesis
Procedure: Based on the results disclosed in Example 2, the gamma loop peptide was used as a bait to find additional peptides which may positively affect the stability of thrombin. For this purpose, a binding screen was carried out using a fluorescent gamma loop peptide incubated with several peptide arrays.
(§2) A library of 1,676 15-meric peptides spanning the sequences of proteins interacting with the gamma loop of thrombin such as thrombin itself, anti-thrombin III (ATIII), thrombomodulin, heparin cofactor II, bovine pancreatic trypsin inhibitor (BPTI), and hirudin, and modifications of the thrombin gamma loop sequence were generated. Peptides were synthesized using SPOT synthesis (Wenschuh H, et al. (2000). Coherent membrane supports for parallel microsynthesis and screening of bioactive peptides. Biopolymers 55:188-206) and were chemoselectively immobilized onto functionalized glass slides as described (Panse S, et al. (2004) Profiling of generic anti-phosphopeptide antibodies and kinases with peptide microarrays using radioactive and fluorescence-based assays. Mol Divers 8:291-299.2.). Each peptide was printed in triplicates onto the microarray. For binding studies, 100 μg of purified thrombin (Omrix biopharmaceuticals) were directly labeled with DYLIGHT® 650 Microscale Antibody Labeling Kits, THERMO SCIENTIFIC™ (#84536) and diluted in blocking buffer SUPERBLOKTM T20 (TBS) Blocking Buffer, THERMO SCIENTIFICTM (#37536). The microarrays were incubated with 10 μg/ml DYLIGHT® 650-Thrombin or a Fluorescein-labeled cyclic gamma-loop derived peptide for one hour at 30° C. in a HS4800™ microarray processing station (Tecan) (Masch A, et al., (2010) Antibody signatures defined by high-content peptide microarray analysis. Methods Mol Biol 669:161-172).
(§3) Microarrays were washed with 0.1% TWEEN®20 in 1× TBS followed by 0.05% TWEEN®20 in 0.1× SSC and dried in a stream of nitrogen. Each microarray was scanned using GENEPIX® Autoloader 4200AL (Molecular Devices, Pixel size: 10 μm). Signal intensities were evaluated using spot recognition software GENEPIX® Pro 7.0 analysis software (Molecular Devices). For each peptide, the mean signal intensity of the three triplicates was extracted. Further evaluation and representation of results was performed using the statistical computing and graphics software R (Version 2.11.1, www.r-project.org).
(§4) One array included peptides based on the thrombin sequence. Any peptide isolated from this library may reflect possible regions in the thrombin protein that may interact with the gamma loop. […] The fluorescence for the strongest binding candidates (hits) was quantified on an arbitrary scale of 0-65535 (2^16). Thrombin activity was assesed as described in Example 1.

[3] = molecular target: T1, thrombin; assay: Peptide microarray binding with fluorescently labelled thrombin; settings: for Binding intensity of thrombin (100 μg/ml): DYLIGHT 650-Thrombin; for binding to thrombin (in words): fluorescent thrombin
Procedure: A screen was carried out to identify gamma loop mutants that may show improved binding to thrombin. This was carried out with fluorescent thrombin on an array of gamma loop peptide mutants. Three such cyclized peptides with the highest binding efficiency were tested for their capacity to stabilize thrombin without compromising thrombin activity towards fibrinogen (see Example 4 below).
as §2, with “The microarrays were incubated with 10 μg/ml DYLIGHT® 650-Thrombin or a Fluorescein-labeled” left out
as §3, §4

[4] = molecular target: T1, thrombin; assay: Thrombin inhibition testing: clotting activity of 10 IU/ml thrombin towards fibrinogen in the presence of the additive; format: biochemical; settings: for inhibition of thrombin activity: 0.5 mM additive; for inhibition of thrombin activity / reduction/inhibition of thrombin activity: 10 IU/ml thrombin
Procedure: as §1
For inhibition testing, the clotting activity of 10 IU/ml thrombin was measured in the presence or absence of peptides.
The assay was carried out as described in Example 1.

| Molecule | stabilization of thrombin activity (in words) [1] | Binding intensity of gamma loop [2] | Binding intensity of thrombin (100 μg/ml) [3] | also measured |
| --- | --- | --- | --- | --- |
| SGIESQLWRSRYPHK [Thr_032_CS, thrombin derived peptide, Cysteine replaced by Serine] | some stabilization effect | 35117 arbitrary units | 15079 | stabilization of thrombin activity (in words) ([1]; listed as SEQ ID NO:10): capable of stabilizing liquid aqueous thrombin |
| N=C(N)c1ccccc1 [Benzamidine] |  |  |  | inhibition of thrombin activity [4]: 20% |
| RIRITDNMFSAGYKP [Thr_136_CS, thrombin derived peptide, Cysteine replaced by Serine] | least effective; also recorded: weaker stabilization effect | 25278 arbitrary units | 5535 | stabilization of thrombin activity (in words) ([1]; listed as SEQ ID NO:11): capable of stabilizing liquid aqueous thrombin; binding to thrombin (in words) [3]: weakest fluorescent signal |
| N=C(N)NCCC[C@H](N)C(=O)O [arginine, arginine*HCl] |  |  |  | reduction/inhibition of thrombin activity ([4]; 0.5% (w/v) arginine): about 50%; reduction/inhibition of thrombin activity ([4]; 0.5% (w/v) arginine, listed as Arginine): 50%; reduction/inhibition of thrombin activity ([4]; 2% (w/v) arginine): > 95%; inhibition of thrombin (in words) ([4]; 3% (w/v) arginine, extrapolated from FIG. 2A): inhibit thrombin almost entirely; thrombin activity following storage (in words) ([1]; 0.5-5% (w/v) arginine, concentrated thrombin, up to 48 hours at 37° C.): maintained thrombin activity following storage; maintaining thrombin activity compared with 0.5 mM gamma loop peptide (in words) ([1]; 72 hours at 37° C.): not more effective; maintaining thrombin activity compared with 0.5 mM gamma loop peptide (in words) ([1]; 144 hours at 37° C.): only marginally so |
| KETWTANVGK [SEQ ID NO:1] |  |  |  | inhibition of thrombin activity [4]: about 20% |
| CKNTWTANVGKC (disulfide 1-12 (inferred)) [SEQ ID NO:4, cyclized mutant gamma loop peptide] | inefficient |  |  |  |
| ISMLEKIYIHPRYNW [Thr_111, thrombin derived peptide] | increased thrombin degradation; also recorded: destabilization effect | 32804 arbitrary units | 60199 | binding to thrombin (in words) [3]: strongest interaction with thrombin |
| WCYVAGKPGDFGYCD [Thr_069, thrombin derived peptide] | minimal effect on thrombin stability; also recorded: weaker stabilization effect | 50553 arbitrary units | 3141 | stabilization of thrombin activity (in words) ([1]; listed as SEQ ID NO:7): capable of stabilizing liquid aqueous thrombin; binding to thrombin (in words) [3]: very weak binding to thrombin |
| NITRSGIESQLWRSR [Thr_031_CS, thrombin derived peptide, Cysteine replaced by Serine] | some stabilization effect | 40787 arbitrary units | 18537 | stabilization of thrombin activity (in words) ([1]; listed as SEQ ID NO:9): capable of stabilizing liquid aqueous thrombin |
| LGNKKFVSGSRFVST [Rnd_inter_316] |  | 26628 arbitrary units | 12353 | inhibition of thrombin activity (in words) ([4]; any concentration tested): absolutely no inhibition; stabilization of thrombin activity (in words) ([1]; listed as SEQ ID NO:12): some stabilization effect; also recorded: capable of stabilizing liquid aqueous thrombin |
| CKETWTAYVGKC (disulfide 1-12 (inferred)) [SEQ ID NO:5, cyclized mutant gamma loop peptide] | inefficient |  |  |  |
| CKETWTANVLKC (disulfide 1-12 (inferred)) [SEQ ID NO:6, cyclized mutant gamma loop peptide] | inefficient |  |  |  |
| CKETWTANVGKC (disulfide 1-12 (inferred)) [SEQ ID NO:3, gamma loop peptide cyclized with terminal cysteine residues] | efficient stabilization of thrombin activity; also recorded: capable of stabilizing liquid aqueous thrombin |  |  |  |
| SHNQRFVTYLGSKLG [Rnd_inter_155] |  | 19539 arbitrary units | 23646 | stabilization of thrombin activity (in words) ([1]; listed as SEQ ID NO:13): some stabilization effect; also recorded: capable of stabilizing liquid aqueous thrombin |
